Broadly, the Kd is a measure of binding affinity in units of concentration.

The target in the assay is GST-Aβ42 (monomeric amyloid beta 1-42 as a GST-fusion protein) (UniProt P05067 672-713). Kind of assay: BLI.
Sequence of GST-Aβ42 (monomeric amyloid beta 1-42 as a GST-fusion protein) (P05067 672-713): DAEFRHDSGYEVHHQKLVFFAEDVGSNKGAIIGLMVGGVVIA

B1: human TREM2 Ig domain (aa 19-134), wild type, without BirA tag, in solution (domain or fragment, UniProt Q9NZC2 19-134, looked up)
chain: HNTTVFQGVAGQSLQVSCPYDSMKHWGRRKAWCRQLGEKGPCQRVVSTHNLWLLSFLRRWNGSTAITDDTLGGTLTITLRNLQPHDAGLYQCQSLHGSEADTLRKVLVEVLADPLD
The molecule B1 gave a Kd of 5.1 µM.

B2: human sTREM2 (aa 19-157), wild type, in solution (domain or fragment, UniProt Q9NZC2 19-157, looked up)
chain: HNTTVFQGVAGQSLQVSCPYDSMKHWGRRKAWCRQLGEKGPCQRVVSTHNLWLLSFLRRWNGSTAITDDTLGGTLTITLRNLQPHDAGLYQCQSLHGSEADTLRKVLVEVLADPLDHRDAGDLWFPGESESFEDAHVEH
The molecule B2 showed a Kd of 3.8 µM.

Values taken from publication PMC8026773 (Alzheimer's & dementia : the journal of the Alzheimer's …, 2020).
